The record followed here is patent publication US9540654B2, “Synthetic brassica-derived chloroplast transit peptides” (Dow AgroSciences LLC, priority 2012, dated 2017).

For one assay, the system named is rice. Kind of assay: Postemergence glyphosate tolerance of dgt-28 rice (T0, T1). The class given is in vivo, Oryza sativa. Conditions: following 560 g ae/ha glyphosate used for selection. How it is done:
Transplanted rice transformants produced via Agrobacterium transformation were transplanted into media and acclimated to greenhouse conditions. […] Selected T0 events from construct pDAB110828 were treated with 2240 g ae/ha DURANGO DMA™ as previously described and assessed 7 and 14 days after treatment. […] All PCR positive plants were allowed to produce T1 seed for further characterization.
(§1) T1 resistant plants from each event used in the progeny testing were given unique identifiers and sampled for zygosity analyses of the dgt-28 gene. Zygosity data were used to assign 2 hemizygous and 2 homozygous replicates to each rate of glyphosate applied allowing for a total of 4 replicates per treatment. These plants were compared against wildtype kitaake rice. All plants were sprayed with a track sprayer set at 187 L/ha. The plants were sprayed from a range of 560-2240 g ae/ha DURANGO DMA™. All applications were formulated in water with the addition of 2% w/v ammonium sulfate (AMS). Plants were evaluated at 7 and 14 days after treatment. Plants were assigned an injury rating with respect to overall visual stunting, chlorosis, and necrosis. The T1 generation is segregating, so some variable response is expected due to difference in zygosity.

The subject of a further assay is Zea mays B104. As to the kind of experiment: Post-emergence glyphosate tolerance of dgt-28 T0 corn (greenhouse). The class given is in vivo. To be noted: T0 dgt-28 corn plants. How it is done:
Zea mays dgt-28 transformation events (T0) were allowed to acclimate in the greenhouse and were grown until plants had transitioned from tissue culture to greenhouse growing conditions (i.e., 2-4 new, normal looking leaves had emerged from the whorl). Plants were grown at 27° C. under 16 hour light:8 hour dark conditions in the greenhouse. The plants were then treated with commercial formulations of DURANGO DMA™ (containing the herbicide glyphosate) with the addition of 2% w/v ammonium-sulfate. Herbicide applications were made with a track sprayer at a spray volume of 187 L/ha, 50-cm spray height. T0 plants were sprayed with a range of glyphosate from 280-4480 g ae/ha glyphosate, which is capable of significant injury to untransformed corn lines. A lethal dose is defined as the rate that causes >95% injury to the B104 inbred.
T0 events of dgt-28 linked with TraP4, TraP5, TraP8 and TraP23 were generated by Agrobacterium transformation and were allowed to acclimate under controlled growth chamber conditions until 2-4 new, normal looking leaves had emerged from the whorl. Plants were assigned individual identification numbers and sampled for copy number analyses of both dgt-28 and aad-1. Based on copy number analyses, plants were selected for protein expression analyses. Plants were transplanted into larger pots with new growing media and grown at 27° C. under 16 hour light:8 hour dark conditions in the greenhouse. Remaining plants that were not sampled for protein expression were then treated with commercial formulations of DURANGO DMA™ (glyphosate) with the addition of 2% w/v ammonium-sulfate. Treatments were distributed so that each grouping of plants contained T0 events of varying copy number. Herbicide applications were made with a track sprayer at a spray volume of 187 L/ha, 50-cm spray height. T0 plants were sprayed with a range of glyphosate from 280-4480 g ae/ha glyphosate capable of significant injury to untransformed corn lines. A lethal dose is defined as the rate that causes >95% injury to the B104 inbred. B104 was the genetic background of the transformants.

Assay [1] deals with tobacco (cv. Petit Havana). Kind of assay: Postemergence glyphosate tolerance of dgt-28 tobacco (T1, T2). To be noted: tobacco through two generations. The class given is in vivo.
Source text: as §1, with “Petite havana tobacco.” for “kitaake rice.”, “560-4480” for “560-2240”
Rates of DURANGO DMA™ ranging from 420-3360 g ae/ha glyphosate were applied to 2-3 leaf tobacco as previously described.

For assay [2], the system named is Zea mays hybrid 4XP811/B104. As to the kind of experiment: Glyphosate tolerance of dgt-28 corn under field conditions. The class given is in vivo. Conditions: corn under field conditions through the reproductive growth stages. The source says:
Single copy T1 events were sent to a field location to create both hybrid hemizygous and inbred homozygous seed for additional characterization. Hybrid seeds were created by crossing T1 events in the maize transformation line B104 to the inbred line 4XP811 generating hybrid populations segregating 1:1 (hemizygous:null) for the event. The resulting seeds were shipped to 2 separate locations. A total of five single copy events per construct were planted at each location in a randomized complete block design in triplicate. The fields were designed for glyphosate applications to occur at the V4 growth stage and a separate grouping of plants to be applied at the V8 growth stage. The 4XP811/B104 conventional hybrid was used as a negative control.
Experimental rows were treated with 184 g ae/ha ASSURE II™ (106 g ai/L quizalofop-methyl) to eliminate null segregants. All experimental entries segregated 1:1 (sensitive:resistant) (p=0.05) with respect to the ASSURE II™ application. Selected resistant plants were sampled from each event for quantification of the DGT-28 protein by standard ELISA.
Quizalofop-methyl resistant plants were treated with the commercial herbicide DURANGO DMA™ (480 g ae/L glyphosate) with the addition of 2.5% w/v ammonium-sulfate at either the V4 or V8 growth stages. […]

The next assay concerns Arabidopsis. Kind of assay: dgt-28 as a selectable marker with glyphosate selection. The class given is in vivo, Arabidopsis thaliana. Conditions: 26.25-1680 g ae/ha glyphosate applied 7 and 11 DAP. As for the experimental part: The use of dgt-28 as a selectable marker for glyphosate selection agent is tested with the Arabidopsis transformed plants described above. Approximately 50 T4 generation Arabidopsis seed (homozygous for dgt-28) are spiked into approximately 5,000 wildtype (sensitive to glyphosate) seed. The seeds are germinated and plantlets are sprayed with a selecting dose of glyphosate. Several treatments of glyphosate are compared; each tray of plants receives either one or two application timings of glyphosate in one of the following treatment schemes: 7 DAP (days after planting), 11 DAP, or 7 followed by 11 DAP. Since all plants also contain a glufosinate resistance gene in the same transformation vector, dgt-28 containing plants selected with glyphosate can be directly compared to DSM-2 or pat containing plants selected with glufosinate.
Glyphosate treatments are applied with a DeVilbiss™ spray tip as previously described. Transgenic plants containing dgt-28 are identified as “resistant” or “sensitive” 17 DAP. […] Sensitive and resistant plants are counted and the number of glyphosate tolerant plants is found to correlate with the original number of transgenic seed containing the dgt-28 transgene which are planted.

B1: DGT-28: EPSP synthase (GENBANK ZP_06917240.1) from Streptomyces sviceus ATCC29083; glyphosate tolerance gene and protein (protein)
chain: MRGMPALSLPGSKSITARALFLAAAADGVTTLVRPLRSDDTEGFAEGLVRLGYRVGRTPDTWQVDGRPQGPAVAEADVYCRDGATTARFLPTLAAAGHGTYRFDASPQMRRRPLLPLSRALRDLGVDLRHEEAEGHHPLTVRAAGVEGGEVTLDAGQSSQYLTALLLLGPLTRQGLRIRVTDLVSAPYVEITLAMMRAFGVEVAREGDVFVVPPGGYRATTYAIEPDASTASYFFAAAALTPGAEVTVPGLGTGALQGDLGFVDVLRRMGAEVSVGADATTVRGTGELRGLTANMRDISDTMPTLAAIAPFASAPVRIEDVANTRVKECDRLEACAENLRRLGVRVATGPDWIEIHPGPATGAQVTSYGDHRIVMSFAVTGLRVPGISFDDPGCVRKTFPGFHEAFAELRRGIGS
For B1, the “glyphosate rate up to which tolerance was shown” value in the assay on rice is on record as “up to 2240 g ae/ha”. For the same molecule, the “glyphosate rate up to which tolerance was achieved” value in the assay with Zea mays B104 is recorded as “up to 4480 g ae/ha”. The figures for the “glyphosate rate up to which robust tolerance was shown” value in assay [1] and in assay [2] were “up to 3360 g ae/ha” and “up to 4480 g ae/ha”, respectively. Also, the “selection for transgenic Arabidopsis plants with glyphosate” value in the assay on Arabidopsis is “effective selection”.
